Experimental data taken from patent EP4682166A1 (Guangzhou Enmai Biotechnology Co., Ltd, dated 2026).
Positions count from the first letter of the chain named. In names and notes the source's numbering stands.

T1: human NMI (N-myc Interacting protein), recombinant protein (human, UniProt Q13287 1-307, limits assumed)
T1 construct: Gene ID: 9111; also called hNMI; antigen
T1 sequence (looked up): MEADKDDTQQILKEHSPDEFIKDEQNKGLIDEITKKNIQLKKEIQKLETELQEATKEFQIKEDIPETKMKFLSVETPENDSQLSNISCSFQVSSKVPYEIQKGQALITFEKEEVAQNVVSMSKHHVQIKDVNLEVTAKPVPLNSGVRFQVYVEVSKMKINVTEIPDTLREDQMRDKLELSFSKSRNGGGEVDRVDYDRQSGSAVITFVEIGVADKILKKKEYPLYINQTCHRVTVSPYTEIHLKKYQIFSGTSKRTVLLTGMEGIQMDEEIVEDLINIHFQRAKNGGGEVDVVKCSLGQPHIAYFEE

B1: 98G10-L-3 (antibody, V domains shown)
VH: QEQLEESGGDLVKPEGSLTLTCTASGFSFSASYWICWVRQAPGKGLEWIACIYGGSSGSAYYASWAKGRFTISKTSSTTVTLQMTSLTAADTATYFCARAGYYNYGSAGDIYPSSFKLWGPGTLVTVSS
VL: DIVMTQTPASVEAAVGGTVTINCQASQSISTALAWYQQKPGQPPKLLIYTASKVASGVPSRFSGSGSGTQFTLTISDLECADAATYYCQNYYQSSSSITFGGGTEVVVK
notes: also called 98G10 Y93Q (VL)
B2: 98G10-L-2 (antibody, V domains shown)
VH: B1 VH
VL: B1 VL with Q93S
notes: also called 98G10 Y93S (VL)
B3: 98G10-L-1 (antibody, V domains shown)
VH: B1 VH
VL: B1 VL with Q93R
notes: also called 98G10 Y93R (VL)
B4: 98G10-1 (mutated antibody of Table 17-7) (antibody, V domains shown)
VH: B1 VH
VL: B1 VL with C80P, Q93Y
notes: also called 98G10 C80P (VL)
B5: 98G10-6 (antibody, V domains shown)
VH: B1 VH with T81Y
VL: B1 VL with T18R, C80P, Q93Y
notes: also called 98G10 T81Y (VH), T18R/C80P (VL)
B6: 98G10-2 (antibody, V domains shown)
VH: B1 VH with T81Y
VL: B1 VL with Q93Y
notes: also called 98G10 T81Y (VH)
B7: 98G10-7 (antibody, V domains shown)
VH: B1 VH with T23K, T81Y
VL: B1 VL with T18R, C80P, Q93Y
notes: also called 98G10 T23K/T81Y (VH), T18R/C80P (VL)
B8: 98G10-9 (antibody, V domains shown)
VH: B1 VH with T23K, T81Y
VL: B1 VL with T18R, Q70D, C80P, Q93Y
notes: also called 98G10 T23K/T81Y (VH), T18R/Q70D/C80P (VL)
B9: 98G10-5 (antibody, V domains shown)
VH: B1 VH
VL: B1 VL with T18R, C80P, Q93Y
notes: also called 98G10 T18R/C80P (VL)
B10: 98G10-12 (antibody, V domains shown)
VH: B1 VH with T75D
VL: B1 VL with Q93Y
notes: also called 98G10 T75D (VH)
B11: 98G10-11 (antibody, V domains shown)
VH: B1 VH
VL: B1 VL with Q70D, Q93Y
notes: also called 98G10 Q70D (VL)
B12: 98G10-3 (antibody, V domains shown)
VH: B1 VH with T81Y
VL: B1 VL with C80P, Q93Y
notes: also called 98G10 T81Y (VH), C80P (VL)
B13: 98G10-8 (antibody, V domains shown)
VH: B1 VH with T23K, T75D, T81Y
VL: B1 VL with T18R, C80P, Q93Y
notes: also called 98G10 T23K/T75D/T81Y (VH), T18R/C80P (VL)
B14: 98G10-4 (antibody, V domains shown)
VH: B1 VH with T23K
VL: B1 VL with C80P, Q93Y
notes: also called 98G10 T23K (VH), C80P (VL)
B15: 98G10-10 (antibody, V domains shown)
VH: B1 VH with T23K, T75D, T81Y
VL: B1 VL with T18R, Q70D, C80P, Q93Y
notes: also called 98G10 T23K/T75D/T81Y (VH), T18R/Q70D/C80P (VL)
B16: 94C4 mutant A32K (VH) (antibody, V domains shown)
VH: QSLEESGGGLVQPEGSLTLTCKASGFDFSSNKMCWVRQAPGKGLEWIACISSASSGSSGSTYYASWAKGRFTISKTSSTTVTLQMTSLTAADMATYFCARDGYDLWGPGTLVTVSS
VL: QVLTQTPSSVSAAVGGTVTISCQSSPSVYNNYLSWFQQKPGQSPKLLIYRVSTLASGVPSRFSGSGSGTQFTLTISGVQCDDAATYYCAGGYDSASDTYVFGGGTEVVVK
B17: 94C4 mutant D101K (VH) (antibody, V domains shown)
VH: B16 VH with K32A, D101K
VL: B16 VL
B18: 94C4 mutant D101M (VH) (antibody, V domains shown)
VH: B16 VH with K32A, D101M
VL: B16 VL
B19: 94C4 mutant D101Q (VH) (antibody, V domains shown)
VH: B16 VH with K32A, D101Q
VL: B16 VL
B20: 94C4 mutant D97K (VL) (antibody, V domains shown)
VH: B16 VH with K32A
VL: B16 VL with D97K
B21: 94C4 mutant D101E (VH) (antibody, V domains shown)
VH: B16 VH with K32A, D101E
VL: B16 VL
B22: 240B10-1 mutant D27K (VH) (antibody, V domains shown)
VH: QSLEESGGRLVTPGGSLTLTCTVSGIKLSSYTMGWVRQAPGKGLEYIGIISGGGRTYYASWAKGRFTISKTSSTTVDLKVTSLTTEDTATYFCARIYTLWGQGTLVTVSS
VL: QVLTQTLASVSAAVGGTVTINCQSSQSVYNNDYLAWFQQKSGQPPKQLIHSASKLASGVPSRFKGSGSGTQFTLTINDVQCDDAATYYCLGGYDCYSADCNVFGGGTEVVVK
B23: 240B10-1 mutant S29Q (VH) (antibody, V domains shown)
VH: B22 VH with K27D, S29Q
VL: B22 VL
B24: 240B10-1 mutant N30T (VL) (antibody, V domains shown)
VH: B22 VH with K27D
VL: B22 VL with N30T
B25: 240B10-1 mutant G52R (VH) (antibody, V domains shown)
VH: B22 VH with K27D, G52R
VL: B22 VL
B26: 240B10-1 mutant S30D (VH) (antibody, V domains shown)
VH: B22 VH with K27D, S30D
VL: B22 VL
B27: 240B10-1 mutant N30E (VL) (antibody, V domains shown)
VH: B22 VH with K27D
VL: B22 VL with N30E
B28: 240B10-1 mutant G52Q (VH) (antibody, V domains shown)
VH: B22 VH with K27D, G52Q
VL: B22 VL
B29: 240B10-1 mutant S30K (VH) (antibody, V domains shown)
VH: B22 VH with K27D, S30K
VL: B22 VL
B30: 240B10-1 mutant S29D (VH) (antibody, V domains shown)
VH: B22 VH with K27D, S29D
VL: B22 VL
B31: 240B10-1 mutant S30E (VH) (antibody, V domains shown)
VH: B22 VH with K27D, S30E
VL: B22 VL
B32: 240B10-1 mutant S30A (VH) (antibody, V domains shown)
VH: B22 VH with K27D, S30A
VL: B22 VL
B33: 240B10-1 mutant G52E (VH) (antibody, V domains shown)
VH: B22 VH with K27D, G52E
VL: B22 VL
B34: 240B10-1 mutant S29E (VH) (antibody, V domains shown)
VH: B22 VH with K27D, S29E
VL: B22 VL
B35: 240B10-1 mutant G52K (VH) (antibody, V domains shown)
VH: B22 VH with K27D, G52K
VL: B22 VL
B36: 240B10-1 mutant D27P (VH) (antibody, V domains shown)
VH: B22 VH with K27P
VL: B22 VL

Biological target: T1, human NMI (N-myc Interacting protein), …
Experiment: ELISA, binding to hNMI

| EC50 | Binder |
| --- | --- |
| 0.066 µg/mL | B1 |
| 0.053 µg/mL | B2 |
| 0.087 µg/mL | B3 |

Biological target: T1, human NMI (N-myc Interacting protein), …
Experiment: ELISA, binding to hNMI
Remark: another data set of the same source

| EC50 | Binder |
| --- | --- |
| 173 pM | B4 |
| 168 pM | B5 |
| 48.3 pM | B6 |
| 133 pM | B7 |
| 119 pM | B8 |
| 238 pM | B9 |
| 74.6 pM | B10 |
| 65.9 pM | B11 |
| 176 pM | B12 |
| 106 pM | B13 |
| 177 pM | B14 |
| 168 pM | B15 |

Biological target: T1, human NMI (N-myc Interacting protein), …
Experiment: ELISA EC50 against parent 94C4

| Fold decrease in affinity | Binder |
| --- | --- |
| > 500 fold | B16 |
| > 500 fold | B17 |
| > 500 fold | B18 |
| > 500 fold | B19 |
| > 500 fold | B20 |
| > 500 fold | B21 |

Biological target: T1, human NMI (N-myc Interacting protein), …
Experiment: ELISA EC50 against parent 98G10

| Fold decrease in affinity | Binder |
| --- | --- |
| 2.13 fold | B1 |
| 1.71 fold | B2 |
| 2.81 fold | B3 |

Biological target: T1, human NMI (N-myc Interacting protein), …
Experiment: ELISA EC50 against parent 98G10
Remark: another data set of the same source

| Fold decrease in affinity | Binder |
| --- | --- |
| 1.05 fold | B4 |
| 1.02 fold | B5 |
| 0.29 fold | B6 |
| 0.81 fold | B7 |
| 0.72 fold | B8 |
| 1.44 fold | B9 |
| 0.45 fold | B10 |
| 0.4 fold | B11 |
| 1.06 fold | B12 |
| 0.64 fold | B13 |
| 1.07 fold | B14 |
| 1.02 fold | B15 |

Biological target: T1, human NMI (N-myc Interacting protein), …
Experiment: ELISA EC50 against parent 240B10-1

| Fold decrease in affinity | Binder |
| --- | --- |
| > 500 fold | B22 |
| > 500 fold | B23 |
| > 500 fold | B24 |
| > 500 fold | B25 |
| > 500 fold | B26 |
| > 500 fold | B27 |
| > 500 fold | B28 |
| > 500 fold | B29 |
| > 500 fold | B30 |
| > 500 fold | B31 |
| > 500 fold | B32 |
| > 500 fold | B33 |
| > 500 fold | B34 |
| > 500 fold | B35 |
| > 500 fold | B36 |
